Assay results taken from patent US10253089B2, “Matrix metalloproteinase cleavable protein polymers for cancer gene therapy” (The University of Utah Research Foundation, priority 2012, dated 2019).

Experiments:
MMP-2 = biological target: T1, MMP-2 (Homo sapiens, UniProt P08253); test: Hydrogel protein loss in the presence of MMP-2; type: biochemical; conditions: 10 wt % hydrogel, MMP-2 10 nM, two weeks
T1 sequence (P08253 110-660): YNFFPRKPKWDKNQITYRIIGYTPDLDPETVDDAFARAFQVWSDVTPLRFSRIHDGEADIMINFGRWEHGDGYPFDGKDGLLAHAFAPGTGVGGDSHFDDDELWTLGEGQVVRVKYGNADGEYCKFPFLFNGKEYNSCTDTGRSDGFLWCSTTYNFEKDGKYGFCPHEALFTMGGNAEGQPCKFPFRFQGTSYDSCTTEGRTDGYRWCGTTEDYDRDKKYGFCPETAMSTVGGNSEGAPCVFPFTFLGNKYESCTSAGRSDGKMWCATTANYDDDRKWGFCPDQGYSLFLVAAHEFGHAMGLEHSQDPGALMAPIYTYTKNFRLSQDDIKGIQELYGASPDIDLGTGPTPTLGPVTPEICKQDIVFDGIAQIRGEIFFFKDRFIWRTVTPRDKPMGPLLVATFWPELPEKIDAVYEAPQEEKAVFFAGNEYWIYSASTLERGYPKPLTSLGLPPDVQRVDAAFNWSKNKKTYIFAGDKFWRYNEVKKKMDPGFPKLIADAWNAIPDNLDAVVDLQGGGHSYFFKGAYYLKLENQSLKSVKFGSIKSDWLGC
Method: The properties of hydrogels formed from SELPs are strongly dependent on the shear applied to liquid solutions of polymer prior to gelation. SELPs solubilized in phosphate buffered saline were loaded into a 1 ml luer-lock syringe connected at the hub to another 1 ml luer-lock syringe via two 27G needles, joined by a section of 0.0155″ HPLC tubing. The SELP solution was passed through this device at maximum hand pressure for five full bidirectional cycles, at which point it was used for studies.
Hydrogels were characterized for their sensitivity to MMP degradation in the context of protein loss from the gel, changes in mechanical properties, and release of model 100 nm fluorescent nanoparticles. […] Syringes were sealed with Parafilm and allowed to gel upright overnight at 37° C. […]
Protein loss was quantified using a Modified Lowry Assay Kit, and using known SELP solutions for the standard curve instead of the supplied bovine serum albumin, as SELP contains few Lowry-reactive amino acids. The mechanical properties of SELPs were evaluated in cyclic compression at 1 Hz and 1% strain, with ˜10 grams of preloading applied for 10 minutes to eliminate stress relaxation. Stress was measured using a 2 lb load cell. Release was quantified by measuring the fluorescence of release samples with an excitation/emission of 260/515. […]

[1] = One week acute toxicity study (weight, CBC); type: in vivo, CD-1 immunocompetent mice
Method: Mice were anesthetized and maintained under anesthesia with 3% isofluorane in oxygen. After shaving and cleaning the injection site with 60% isopropanol, mice were subcutaneously injected in the right flank with 50 μl of solution using a 250 μl Hamilton syringe with a 26G needle. […] The injection site was gently clamped for 10 seconds to prevent leakage, after which mice were returned to their cages. For consistency, the day of viral injection was defined as day 0.
For treatment groups, a suspension of 1 mg GCV (Sigma Aldrich, St. Louis, Mo.) per ml of 0.9% physiological saline was prepared and sterilized through a 0.22 μm filter. Each day, animal weights were recorded, injection sites cleaned with 60% isopropanol, and mice injected i.p. with 1 mg/ml GCV suspension through a 26G needle sufficient for a total dose of 25 mg/kg body weight. Average dosing volume for these studies was approximately 0.6 ml. Mice were injected daily for the first four weeks of the 12 week recovery study, and for the entirety of the 1, 2, and 4 week studies.
Upon completion of each study, mice were individually euthanized using 70% CO2 in oxygen, with euthanasia confirmed by lack of breathing for 10 seconds. […] Injection sites were dissected for visual observation of local inflammation. Complete blood counts (CBCs) were performed within 2 hours of blood sample collection using a CBC-DIFF (Heska, Loveland, Colo.) blood count analyzer. Following CBC, samples were centrifuged at 10,000 rpm for 2.5 minutes and rapidly frozen at −80° C. for future analysis.
Safety studies were conducted in immunocompetent mice. In order to examine the ability of SELP to reduce the acute toxicity of the HSV-Tk/GCV system, 4-6 week old female CD-1 immunocompetent mice were injected subcutaneously with the conditions listed in Table 5. Weight was monitored daily for one week and daily injections of 25 mg/kg, intraperitoneal GCV were given to some groups as indicated in Table 5.
At the conclusion of the one week study, mice were sacrificed, and blood and organs were collected for analysis. […] These assessments were performed using a complete blood count.

B1: SELP815K: silk-elastin-like protein polymer, longer silk units, fifteen elastin units, lysine elastin unit; monomer repeated 6 times (SEQ ID NO. 21) (protein)
chain: MDPVVLQRRDWENPGVTQLNRLAAHPPFASDPMGAGSGAGAGSGAGAGSGVGVPGVGVPGVGVPGVGVPGKGVPGVGVPGVGVPGVGVPGVGVPGVGVPGVGVPGVGVPGVGVPGVGVPGVGVPGVGVPGAGAGSGAGAGSGAGAGSGAGAGSGAGAGSGAGAGAGSGAGAGSGAGAGSGVGVPGVGVPGVGVPGVGVPGKGVPGVGVPGVGVPGVGVPGVGVPGVGVPGVGVPGVGVPGVGVPGVGVPGVGVPGVGVPGAGAGSGAGAGSGAGAGSGAGAGSGAGAGSGAGAGAGSGAGAGSGAGAGSGVGVPGVGVPGVGVPGVGVPGKGVPGVGVPGVGVPGVGVPGVGVPGVGVPGVGVPGVGVPGVGVPGVGVPGVGVPGVGVPGAGAGSGAGAGSGAGAGSGAGAGSGAGAGSGAGAGAGSGAGAGSGAGAGSGVGVPGVGVPGVGVPGVGVPGKGVPGVGVPGVGVPGVGVPGVGVPGVGVPGVGVPGVGVPGVGVPGVGVPGVGVPGVGVPGAGAGSGAGAGSGAGAGSGAGAGSGAGAGSGAGAGAGSGAGAGSGAGAGSGVGVPGVGVPGVGVPGVGVPGKGVPGVGVPGVGVPGVGVPGVGVPGVGVPGVGVPGVGVPGVGVPGVGVPGVGVPGVGVPGAGAGSGAGAGSGAGAGSGAGAGSGAGAGSGAGAGAGSGAGAGSGAGAGSGVGVPGVGVPGVGVPGVGVPGKGVPGVGVPGVGVPGVGVPGVGVPGVGVPGVGVPGVGVPGVGVPGVGVPGVGVPGVGVPGAGAGSGAGAGSGAGAGSGAGAGSGAGAGSGAGAMDPGRYQDLRSHHHHHH
modifications: monomer repeated 6 times; Hybrid of Homo sapein and Bombyx mori
In the case of B1, the “higher protein loss compared to control” value (MMP-2) is reported as “statistically insignificant”, the GRA [1] is reported as 1.125 ± 0.39 and the LYM [1] is reported as 4.475 ± 0.87. For the same molecule, the MON [1] was 0.7 ± 0.27 and the WBC [1] was 6.3 ± 0.79.
